In a protein production outcome set (Wang et al. 2014):

Assay: label from the status in PepcDB records

| Sequence | protein production |
| --- | --- |
| MSSTSFTDLLGSSGVDCYEDDEDLRVSGSSFGGYYPERTGSGLPKFKTAQPPPLPISQSSHNFTFSDYLDSPLLLSSSHSLISPTTGTFPLQGFNGTTNNHSDFPWQLQSQPSNASSALQETYGVQDHEKKQEMIPNEIATQNNNQSFGTERQIKIPAYMVSRNSNDGYGWRKYGQKQVKKSENPRSYFKCTYPDCVSKKIVETASDGQITEIIYKGGHNHPKPEFTKRPSQSSLPSSVNGRRLFNPASVVSEPHDQSENSSISFDYSDLEQKSFKSEYGEIDEEEEQPEMKRMKREGEDEGMSIEVSKGVKEPRVVVQTISDIDVLIDGFRWRKYGQKVVKGNTNPRSYYKCTFQGCGVKKQVERSAADERAVLTTYEGRHNHDIPTALRRS | failed |
| MRIPYIDCGMNSLFFITLLGSFFTVAQANSSSDLLELPATNSALAIKSVLMAMTPNNDAILVVGERGHIINWQNDDNWQQLQSPVSVAITDVTILSDGSKVAVGHDGVILKVDSNSTTWRKVFTGKEITQFQIAQLKQQYQSLEQVILQTQDEDELEELTYQLDDLTFAIEDNQLELKSGPNKPLLSVTSTSNDTLFASGAYGILLSSKDKGETWQLVSNHLDNPDRFHLNTVIATADDQLYIVGENGMGFHSTDVGQTWSVMTLPYSGSLFGILANTVKTHTISTDDINSTKNKTQLVAFGLQGNIMVSLDGGGNWQHIKLPRSTSLLGGNFSKQGKVYLVGHGGVIVSFYPENLSTLTIKKHPSGAALSSVLVKDNSLILAGQFGISQWPIEAEE | failed |
| MEATEKLREKPIKSLFISYLIPAVLGMVLMSVNIVIDAVMISRGVGANGLAGVNVAIPAFSIFFSISLWIGMGGATLYSIALGENKRERARSIFTQSMTVAVVIVGILAAICLWRIEDLAYLFGANEVILPYALDYLHVLLTFGMIYVLENILSTFIRNDGNPNLAMAGLVVTAVLNIVFDYIFIFIFGWGVTGAASATILSAAIGFLVLLTHFFRKSSILKWTKFHFEWDTVKQIMVIGFPSFTAESTVAIVTIGFNIAFVQYAGEVGVASYAMVNSIHAMTLLLFFGVGAALQPIASFHYGANLSERLREGLKFAVKIAVVLGGIAIIVGLFFGKYIIGLFDVQSPELLELTLTGISLFFIQYVFLGYNIVYGEYFQSVRQTKKSVLIIMSRGLLFIIPLLWIMPKLFGINGIWLVMPVAEVMTAIIVFTMNRMKHPVPLNMAGEKEAI | not failed |
| MSLRIAIVGAGALGLYYGALLQRSGEDVHFLLRRDYEAIAGNGLKVFSINGDFTLPHVKGYRAPEEIGPMDLVLVGLKTFANSRYEELIRPLVEEGTQILTLQNGLGNEEALATLFGAERIIGGVAFLCSNRGEPGEVHHLGAGRIILGEFLPRDTGRIEELAAMFRQAGVDCRTTDDLKRARWEKLVWNIPFNGLCALLQQPVNLILARDVSRKLVRGIMLEVIAGANAQGLATFIADGYVDDMLEFTDAMGEYKPSMEIDREEGRPLEIAAIFRTPLAYGAREGIAMPRVEMLATLLEQATGEGHHHHHH | not failed |
| MDAEAAKMIGAGLAAIGMIGSGIGVGNIWANLIATVGRNPAAKSTVELYGWIGFAVTEAIALFALVVALILLFAA | failed |
| MNKFLTTIIIKSKCSLLFISSINDSFIYIIRRMINANWSNFTLSWSIARNYWYYFRKCLDGRPFTVFLTSYQIFSTSFCKGNMFYVISSLIIFIQIMNCFLEHHHHHH | failed |
| MSSRLARFALSGYRIAGIAAYPFARPYLSYRAAKGKEDKRRRLERFGYASAERPRGPLVWFHAASVGETLALIPLIREIRKRDIFVLLTTGTVTSAELTRTRLGDDVIHQYVPLDIKIAVNRFLTYWAPDAAITAESEIWPVTMMELERRHIPQIRVNARLSDRSFDRWKARHDIAESLFSKLALVVAQSDLDAERFRDLGSWPVVISGNLKGDTDPPPCDEALLESYRKQVGNRKTWAAISTFDGEEKAAATVHAAIKSRNGQLTIIVPRHPERGDDVEAMLKGMNLSVARRSRNDVITPGTDIFLGDSIGEMGLYLRLTELAFVGRSLTAEGGQNPLEPAMLGCAVLSGAHVQNFREAYQKLIRAGGGRIIRDVEMLAKAVHYLLVNDNERYKMIDAGNRVIQDMRGALSSTVKALEPYINPLTVSAKLQPRSAIGSWLEHHHHHH | failed |
